Measurements taken from patent US20150044209A1.
Values belong to the substance of their own block, whether it stands above or below them.

How the values were obtained:
[1] = target: human insulin (human) (UniProt P01308); assay: SPR (Biacore 3000), multi-cycle, insulin titrated over amine-coupled Trap, steady-state affinity model, n=4; insulin titrated over immobilized Trap B; steady-state affinity model; n = 4
[2] = target: human insulin (human) (UniProt P01308); assay: SPR (Biacore 3000), multi-cycle, insulin titrated over amine-coupled Trap, steady-state affinity model, n=4
[3] = target: mouse IGF-1 (mouse) (UniProt P05017); assay: SPR, multi-cycle, Trap flowed over amine-coupled ligand, 1:1 kinetic model, n=4
[4] = target: human IGF-2 (human) (UniProt P01344); assay: as above
[5] = target: ligand-immobilized surfaces (hIGF-I, mIGF-I and hIGF-II); assay: SPR, multi-cycle, Trap flowed over ligand-immobilized surfaces; ligand not named

human insulin (human), sequence (P01308 25-54 limits assumed, chain 1 of 2): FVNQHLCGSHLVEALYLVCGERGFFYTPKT
human insulin (human), sequence (P01308 90-110 limits assumed, chain 2 of 2): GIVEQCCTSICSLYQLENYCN
mouse IGF-1 (mouse), sequence (P05017 49-118 limits assumed): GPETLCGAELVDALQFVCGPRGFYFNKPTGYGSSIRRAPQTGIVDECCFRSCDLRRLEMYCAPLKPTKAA
human IGF-2 (human), sequence (P01344 25-91 limits assumed): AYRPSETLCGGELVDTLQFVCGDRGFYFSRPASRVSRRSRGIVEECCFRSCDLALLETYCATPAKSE

- Kd [1]: 10 µM
Substance: Trap B: His-tagged h-sIGF1R purified from 293 cells (from UniProt P08069 31-935) (receptor)

- Kd [2]: 16 µM
- Kd [3]: 0.01 µM
- Kd [4]: 0.016 µM
Substance: Trap D: h-sIGF1R, purified from CHO cells by calcium hydroxyapatite (CHT) column followed by gel filtration (GF) (from UniProt P08069 31-935) (receptor)

- koff [5]: 0.00043 s⁻¹
Substance: Trap F: h-sIGF1R-Fc, purified from CHO cells using protein A, pH 4.0 elution (Fc fusion)

- koff [5]: 0.00015 s⁻¹
Substance: Trap G: h-sIGF1R-Fc, purified from CHO cells using protein A, pH 3.5 elution (Fc fusion)
